According to patent publication US20200262888A1 (HANMI PHARM, published 2020):
Positions count from the first letter of the chain named. Non-standard residues stand in square brackets, D forms with d. No end group written: not given here. *: point of attachment. Acetyl(2-(4-imidazolyl)) = O=C(Cc1c[nH]cn1)*

T1: human GLP-2 receptor (human, UniProt O95838 1-553)
T1 sequence (looked up): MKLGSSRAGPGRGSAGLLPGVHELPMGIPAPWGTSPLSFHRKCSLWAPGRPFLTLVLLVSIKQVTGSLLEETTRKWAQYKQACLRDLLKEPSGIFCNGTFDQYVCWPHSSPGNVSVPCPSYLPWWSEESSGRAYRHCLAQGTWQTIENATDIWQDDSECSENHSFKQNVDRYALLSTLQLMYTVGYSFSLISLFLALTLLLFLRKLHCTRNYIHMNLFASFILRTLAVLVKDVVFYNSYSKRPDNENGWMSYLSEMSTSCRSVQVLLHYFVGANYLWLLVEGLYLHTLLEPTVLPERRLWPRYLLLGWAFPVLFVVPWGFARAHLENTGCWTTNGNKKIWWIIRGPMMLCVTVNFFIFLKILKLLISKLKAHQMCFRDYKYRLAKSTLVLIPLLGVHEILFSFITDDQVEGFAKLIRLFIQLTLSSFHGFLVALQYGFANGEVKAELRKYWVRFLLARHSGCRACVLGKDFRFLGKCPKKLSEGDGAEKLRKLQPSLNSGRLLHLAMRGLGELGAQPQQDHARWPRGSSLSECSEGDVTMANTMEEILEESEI

B1: CA GLP-2 KC (peptide)
peptide: XGDGSFSDEMNTILDNLAARDFINWLIQTKITDC
modifications: position 1 is imidazoacetyldeshistidine (caH) instead of histidine
B2: CA GLP-2 KK (peptide)
peptide: B1 peptide with C34K
modifications: position 1 is imidazoacetyldeshistidine (caH) instead of histidine
B3: CA GLP-2 RC (peptide)
peptide: [Acetyl(2-(4-imidazolyl))]GDGSFSDEMNTILDNLAARDFINWLIQTRITDC
B4: CA GLP-2 RK (peptide)
peptide: [Acetyl(2-(4-imidazolyl))]GDGSFSDEMNTILDNLAARDFINWLIQTRITDK

Each molecule was assayed against T1, human GLP-2 receptor (assay: cell-based or functional assay).

Molecule	In vitro activity compared to human GLP-2 (%) (relative titer from EC50 of cAMP accumulation, CHO-K1 cells expressing human GLP-2 receptor)
Teduglutide (Gattex, Shire) (peptide)	148
B1	149
B2	206
B3	120
B4	333
